US20050042720A1, “Novel promiscuous G alpha protein mutants and their use” (7TM Pharma A/S, priority 2003, published 2005)

Target: Gq-coupled receptors
Experiment: cell-based or functional assay

B1: GαqG66D, P21279 1-359 (protein)
chain: MTLESIMACCLSEEAKEARRINDEIERHVRRDKRDARRELKLLLLGTGESGKSTFIKQMRIIHGSDYSDEDKRGFTKLVYQNIFTAMQAMIRAMDTLKIPYKYEHNKAHAQLVREVDVEKVSAFENPYVDAIKSLWNDPGIQECYDRRREYQLSDSTKYYLNDLDRVADPSYLPTQQDVLRVRVPTTGIIEYPFDLQSVIFRMVDVGGQRSERRKWIHCFENVTSIMFLVALSEYDQVLVESDNENRMEESKALFRTIITYPWFQNSSVILFLNKKDLLEEKIMYSHLVDYFPEYDGPQRDAQAAREFILKMFVDLNPDSDKIIYSHFTCATDTENIRFVFAAVKDTILQLNLKEYNLV
modifications: not fully specified
  decrease in IP1 accumulation: 20%
